B1: Ubiquitin-protein ligase residues 30 to 86; numbered along this chain, Q05086 (parent)
chain: KHLIERYYHQLTEGCGNEACTNEFCASCPTFLRMDNNAAAIKALELYKINAKLCDPH

± gives the uncertainty stated by the source.

The variants in this data set derive from B1. Briefly: abundance fitness (aPCA) (normalised: wild type 0, dead -1); higher = more abundant; growth selection in yeast, the domain comes from the species named. The following applies: Homo sapiens.
Consider H9F, for which the abundance fitness is -0.12 ± 0.088.
As for H9C, the abundance fitness is -0.034 ± 0.071.
Under H9G stands -0.008 ± 0.049.
On to H9K, for which the abundance fitness was 0.077 ± 0.066.
Take H57K: the abundance fitness is -0.092 ± 0.43.
As for H57R, the abundance fitness was -0.052 ± 0.11.
Consider H57Q, for which the abundance fitness came to 0.009 ± 0.22.
On to H57S, for which the abundance fitness was -0.268 ± 0.14.
Then H57F, with 0.076 ± 0.26; and Q10L, with -0.198 ± 0.055; and Q10I, with -0.15 ± 0.089.
Regarding Q10H, the abundance fitness was -0.148 ± 0.099.
T30I: the abundance fitness was -0.042 ± 0.059.
Regarding L32T, the abundance fitness was 0.098 ± 0.13.
Regarding L32H, the abundance fitness is -0.093 ± 0.12.
Take L32Y: the abundance fitness was -0.233 ± 0.18.
In the case of L32C, the abundance fitness is -0.082 ± 0.11.
Consider L32N, for which the abundance fitness came to 0.202 ± 0.14.
Take A51N: the abundance fitness is -0.152 ± 0.13.
Consider A51M, for which the abundance fitness is -0.189 ± 0.099.
Then A51E, with -0.102 ± 0.071.
For the variant N50S, the abundance fitness came to 0.023 ± 0.063.
As to A39H, the abundance fitness was -0.228 ± 0.16.
Regarding A39N, the abundance fitness is -0.242 ± 0.22.
Under A39M stands -0.065 ± 0.087; under A38C, -0.083 ± 0.2.
A38H: the abundance fitness was -0.19 ± 0.21.
Take A38P: the abundance fitness was -0.006 ± 0.17.
On to S27I, for which the abundance fitness is -0.763 ± 0.15.
Then S27Q, with -0.179 ± 0.091; and S27P, with -0.711 ± 0.098; and I41E, with 0.029 ± 0.067.
Consider T12P, for which the abundance fitness is -0.998 ± 0.11.
Take T12E: the abundance fitness is -0.355 ± 0.079.
Consider T12V, for which the abundance fitness is -0.028 ± 0.058.
T12M: the abundance fitness is 0.03 ± 0.077.
As to G16V, the abundance fitness was -0.2 ± 0.049.
For the variant G16S, the abundance fitness was -0.062 ± 0.057.
Regarding G16I, the abundance fitness was -0.33 ± 0.14.
G16A: the abundance fitness was -0.049 ± 0.055.
Regarding N36C, the abundance fitness is -0.019 ± 0.1.
Then N36I, with -0.11 ± 0.13.
N36G: the abundance fitness was -0.036 ± 0.059.
With L53K, the abundance fitness is -0.071 ± 0.093.
Consider L53A, for which the abundance fitness is -0.098 ± 0.075.
As to L53P, the abundance fitness is -0.23 ± 0.11.
For the variant L53N, the abundance fitness was -0.433 ± 0.17.
For L53C, the abundance fitness is -0.14 ± 0.1.
Turning to L3P, the abundance fitness is -0.204 ± 0.078.
For L3K, the abundance fitness was 0.003 ± 0.096.
Then L3Y, with -0.021 ± 0.11; and K42I, with -0.498 ± 0.13; and K42W, with -0.293 ± 0.064.
Take K42T: the abundance fitness was -0.157 ± 0.08.
In the case of C15E, the abundance fitness is -0.943 ± 0.18.
Take C15Q: the abundance fitness is -0.85 ± 0.098.
Turning to C15G, the abundance fitness was -0.973 ± 0.091.
On to C15M, for which the abundance fitness was -1.04 ± 0.12.
C15H: the abundance fitness was -0.576 ± 0.1.
With M34I, the abundance fitness worked out at 0.054 ± 0.15.
Regarding M34H, the abundance fitness was -0.095 ± 0.13.
Consider M34R, for which the abundance fitness is -0.102 ± 0.07.
In the case of M34L, the abundance fitness is -0.002 ± 0.069.
For E45H, the abundance fitness is -0.184 ± 0.21.
As for E45F, the abundance fitness is -0.221 ± 0.17.
For the variant E45S, the abundance fitness was -0.067 ± 0.1.
As for E45R, the abundance fitness is -0.064 ± 0.1.
Then N22C, with -0.532 ± 0.13.
Regarding N22Q, the abundance fitness was -0.286 ± 0.087.
Consider N22F, for which the abundance fitness was -0.418 ± 0.09.
Under E23G stands -0.045 ± 0.048.
E23L: the abundance fitness is -0.106 ± 0.065.
For the variant E23D, the abundance fitness was -0.062 ± 0.07.
For the variant E23T, the abundance fitness was -0.022 ± 0.081.
With N17E, the abundance fitness is -0.029 ± 0.092.
Then N17A, with -0.001 ± 0.051.
Turning to N17Y, the abundance fitness is -0.042 ± 0.05.
Take N37H: the abundance fitness is -0.075 ± 0.11.
Under N37R stands -0.086 ± 0.065; under C25N, -0.882 ± 0.32; under C25A, -1.03 ± 0.18.
Regarding C25K, the abundance fitness was -1.01 ± 0.21.
For the variant C25Y, the abundance fitness is -0.816 ± 0.095.
Then C25G, with -0.973 ± 0.1.
In the case of K1C, the abundance fitness was -0.33 ± 0.25.
Under K1L stands -0.577 ± 0.27; under K1P, -0.719 ± 0.41; under P29N, -0.304 ± 0.3.
Then A26T, with -0.328 ± 0.075.
On to A26S, for which the abundance fitness is -0.047 ± 0.063.
As for Y8V, the abundance fitness was -0.015 ± 0.057.
Take Y8R: the abundance fitness turned out to be 0.028 ± 0.049.
Regarding Y8E, the abundance fitness is -0.027 ± 0.07.
Then Y8G, with -0.212 ± 0.051.
In the case of Y8K, the abundance fitness is 0.054 ± 0.081.
Under C20P stands -1.03 ± 0.12; under C20G, -0.86 ± 0.061; under D35T, -0.112 ± 0.081.
As to D35S, the abundance fitness is -0.022 ± 0.07.
Under D35L stands -0.091 ± 0.07.
As to D35F, the abundance fitness was -0.265 ± 0.17.
Turning to D35V, the abundance fitness is -0.187 ± 0.054.
R33E: the abundance fitness is -0.011 ± 0.11.
Consider R33M, for which the abundance fitness is -0.145 ± 0.12.
F24K: the abundance fitness was -0.041 ± 0.073.
Take F24N: the abundance fitness is -0.017 ± 0.095.
With F24R, the abundance fitness is -0.095 ± 0.049.
Then F24W, with 0.07 ± 0.062.
On to F24V, for which the abundance fitness was -0.03 ± 0.052.
Under F24I stands -0.024 ± 0.083; under K48E, -0.058 ± 0.078.
As for K48V, the abundance fitness was -0.455 ± 0.06.
Then I4D, with -0.116 ± 0.077.
As for I4P, the abundance fitness is -0.093 ± 0.071.
Consider I4Y, for which the abundance fitness was -0.029 ± 0.083.
As for Y7H, the abundance fitness was -0.289 ± 0.11.
Take Y7E: the abundance fitness is -0.963 ± 0.096.
As to Y7G, the abundance fitness was -0.77 ± 0.05.
On to Y7R, for which the abundance fitness is -0.925 ± 0.064.
On to Y7F, for which the abundance fitness is -0.034 ± 0.1.
With Y47S, the abundance fitness was 0.084 ± 0.067.
In the case of Y47T, the abundance fitness was found to be 0.073 ± 0.1.
Y47C: the abundance fitness worked out at 0.031 ± 0.085.
Under Y47W stands -0.085 ± 0.061; under Y47F, 0.108 ± 0.13.
Turning to G14T, the abundance fitness is -0.848 ± 0.08.
Turning to G14V, the abundance fitness was -0.973 ± 0.072.
Then G14R, with -0.966 ± 0.072; and A40N, with 0.041 ± 0.14; and A40P, with -0.171 ± 0.089.
Turning to A40S, the abundance fitness came out at 0.037 ± 0.062.
Turning to A40L, the abundance fitness is -0.083 ± 0.076.
Turning to F31V, the abundance fitness was -0.038 ± 0.068.
On to F31C, for which the abundance fitness is -0.043 ± 0.087.
With F31R, the abundance fitness was -0.14 ± 0.07.
Take D55G: the abundance fitness is -0.018 ± 0.061.
For D55V, the abundance fitness is -0.012 ± 0.057.
On to D55Y, for which the abundance fitness was -0.159 ± 0.086.
On to D55S, for which the abundance fitness was -0.059 ± 0.068.
As for D55T, the abundance fitness was -0.087 ± 0.085.
As to D55C, the abundance fitness was -0.099 ± 0.088.
For E18T, the abundance fitness is -0.003 ± 0.077.
Turning to E18L, the abundance fitness was -0.056 ± 0.06.
In the case of L46N, the abundance fitness is -0.341 ± 0.15.
For the variant L46C, the abundance fitness was -0.029 ± 0.11.
Turning to L46S, the abundance fitness was -0.095 ± 0.063.
Turning to L46Q, the abundance fitness is -0.17 ± 0.081.
With L11Q, the abundance fitness was -0.41 ± 0.086.
On to C28R, for which the abundance fitness is -0.071 ± 0.047.
For C28D, the abundance fitness was -0.171 ± 0.084.
For the variant E13H, the abundance fitness is -0.006 ± 0.1.
For E13I, the abundance fitness was -0.048 ± 0.086.
Under P56T stands 0.016 ± 0.11; under P56F, 0.098 ± 0.17; under T21M, -0.129 ± 0.076.
Regarding T21S, the abundance fitness is -0.037 ± 0.059.
With T21P, the abundance fitness is -0.076 ± 0.077.
T21V: the abundance fitness was -0.005 ± 0.058.
Then T21L, with -0.086 ± 0.062; and R6E, with -0.078 ± 0.071.
In the case of R6F, the abundance fitness was -0.147 ± 0.05.
R6Y: the abundance fitness was -0.209 ± 0.05.
Consider R6A, for which the abundance fitness is -0.021 ± 0.051.
Regarding E5K, the abundance fitness was 0.037 ± 0.089.
For the variant E5W, the abundance fitness was -0.08 ± 0.094.
Regarding E5M, the abundance fitness was -0.105 ± 0.098.
For E5S, the abundance fitness was -0.01 ± 0.043.

The values above are taken from the Human Domainome abundance scans (Beltran et al. 2025).
